72 sequences from the supplement of paper PMC10567573 can be followed below.

The nature of this series: protein stability index of a GFP-peptide fusion (GPS, HEK-293T) (PSI 1-6); higher = more stable.
Setting [1] is: treatment: DMSO, c terminus: a fixed tail appended.
The mark [2] stands for this setting: treatment: MLN4924 1 uM, 8 h, c terminus: a fixed tail appended.

± gives the standard deviation.
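Note: 24-mer peptide tiles fused after GFP, lentivirally expressed, FACS-sorted into six equal bins by GFP/DsRed ratio, decoded by Illumina sequencing, PSI is the read-weighted mean bin number.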

For the sequence SSSTMSKSEYMEIEEDMNNSIAHY [KCNA1], the protein stability index is, setting by setting: under setting [1], 4.56 ± 0.33; under setting [2], 4.5 ± 0.11.

On to RYTFAPSVSLNKTARPFGAPPPAD [PDLIM7], for which the protein stability index is, setting by setting: under setting [1], 3.34 ± 0.2; under setting [2], 3.55 ± 0.21.

With DLLPTFRHTLQKLTCEFNNNHESL [FBXO39], the protein stability index by setting is: under setting [1], 2.27 ± 0.22; under setting [2], 2.35 ± 0.48.

As to DHDPTIEDAYKIRIRIDDEPANLD [RIT1], the protein stability index is 4.86 ± 0.19 under setting [1] and 4.84 ± 0.21 under setting [2].

For the sequence RERDSVPKPSVLFLHPDLGVGGAE [ALG2], the protein stability index runs as follows: under setting [1], 4.08 ± 0.41; under setting [2], 4.21 ± 0.16.

For RLWSHRSYKARLPLRLFLIIANTM [SCD], the protein stability index was determined as 2.29 ± 0.54 under setting [1] and 2.13 ± 0.23 under setting [2].

For the sequence PALHPAHAPQISYTGPSSSGRFAG [NCK2], the protein stability index amounted to 4.02 ± 0.15 under setting [1] and 4.15 ± 0.12 under setting [2].

KTQEHTPTPDDHVFRWLAYSYAST [CPXM2] showed a protein stability index under setting [1] of 2.14 ± 0.34 and a protein stability index under setting [2] of 2.2 ± 0.3.

On to GKSFNRHCNLIRHQKIHTVAELV [ZSCAN9], for which the protein stability index was determined as 2.08 ± 0.28 (treatment: DMSO, c terminus: native) and 2.05 ± 0.33 (treatment: MLN4924 1 uM, 8 h, c terminus: native).

As to GGAAGAGWCIFVYNLSPEADESVL [ELAVL3], the protein stability index was determined as 3.22 ± 1.1 under setting [1] and 2.52 ± 0.91 under setting [2].

In the case of EPPPKSGPSLVPGKTPTVRAALIC [CD207], the protein stability index by setting is: under setting [1], 3 ± 0.15; under setting [2], 3 ± 0.23.

Turning to RRVHLTEDQWGKGTLTPRMTTDFD [TRIM9], the protein stability index came to 3.92 ± 0.13 under setting [1] and 4 ± 0.18 under setting [2].

AEIPDGPPVVAHYDMSDTNSDPEV [C18orf25]: the protein stability index amounted to 5.65 ± 0.21 under setting [1] and 5.48 ± 0.23 under setting [2].

For the sequence PGGGRLLLSTSLDAKDELEERLER [INTS3], the protein stability index by setting is: under setting [1], 4.94 ± 0.3; under setting [2], 4.84 ± 0.15.

Take YTSSQKVSPIQIDGAGRTWQDSDT [TOR1AIP2]: the protein stability index turned out to be 3.62 ± 0.36 under setting [1] and 4.2 ± 0.51 under setting [2].

Turning to SFEDDCSQSLCLNKPTMSFKDYIQ [ETS2], the protein stability index is, setting by setting: under setting [1], 3.52 ± 0.15; under setting [2], 3.67 ± 0.28.

With KKDTGHIYAMKILRKSDMLEKEQV [STK38L], the protein stability index stood at 3.36 ± 0.39 under setting [1] and 3.54 ± 0.21 under setting [2].

MVSNPVHGLPFLPGTSFKDSTKTA [EFHC1]: the protein stability index under setting [1] amounted to 3.87 ± 0.24 and the protein stability index under setting [2] was determined as 3.97 ± 0.25.

As for DFHQGLLSFYNARTKQVLHTFKTR [FSD1], the protein stability index runs as follows: under setting [1], 2.2 ± 0.16; under setting [2], 2.28 ± 0.31.

In the case of ALARNLLVDGETGESFPAQVPSGE [NFE2L1], the protein stability index reads like this: under setting [1], 4.79 ± 0.45; under setting [2], 4.5 ± 0.61.

In turn, KKKRPPQPPEESQPPQSQAQVPPA [PLK2] returned a protein stability index under setting [1] of 5.35 ± 0.23 and a protein stability index under setting [2] of 5.46 ± 0.14.

With HMEGLIVRERILGADNIDVSHPII [FEM1B], the protein stability index by setting is: under setting [1], 3.25 ± 0.23; under setting [2], 2.95 ± 0.28.

As for TLRTLTGQDTMLKAMFSGRVEVLT [KCTD13], the protein stability index is 2.44 ± 0.22 under setting [1] and 2.37 ± 0.29 under setting [2].

Turning to EEIPVVICAAAGRMGATMAAINSI [GLT8D2], the protein stability index worked out at 2.48 ± 0.52 under setting [1] and 2.22 ± 0.21 under setting [2].

On to TFDVDEYEHYERVENGDFNWIVPG [CDC14A], for which the protein stability index turned out to be 4.11 ± 0.26 under setting [1] and 4.17 ± 0.17 under setting [2].

As for LTHIEAQNKIRACGERLSLGLSRA [PDLIM7], the protein stability index by setting is: under setting [1], 2.83 ± 0.27; under setting [2], 2.85 ± 0.12.

In the case of LPDVSLGRYAYVRGGGDPWTNGSG [MCOLN1], the protein stability index runs as follows: under setting [1], 2.51 ± 0.43; under setting [2], 2.87 ± 0.22.

The sequence VRLQSIHTMRKISNNITLREDQLD [INTS4] registered a protein stability index under setting [1] of 3.2 ± 0.055 and a protein stability index under setting [2] of 3.3 ± 0.36.

Regarding ALQVPRGKEDSTLQLLREENRALQ [CBY2], the protein stability index is, setting by setting: under setting [1], 4.13 ± 0.25; under setting [2], 4.23 ± 0.084.

Take NGVLGLSRLLFFLLGFLRIRVRGQ [LPCAT4]: the protein stability index reads like this: under setting [1], 2.2 ± 0.34; under setting [2], 2.44 ± 0.25.

In the case of LGNEYPKLHYPELYVLKGGYKEFF [CDC25A], the protein stability index reads like this: under setting [1], 2.02 ± 0.23; under setting [2], 2.01 ± 0.39.

Turning to IRKKLKDSGDVSNVIEKVKCILKT [RHOBTB3], the protein stability index is, setting by setting: under setting [1], 3.1 ± 0.51; under setting [2], 2.72 ± 0.94.

For the sequence YCFCGWIVLGPYHVKFRSLSMVSE [MCOLN1], the protein stability index is, setting by setting: under setting [1], 2.85 ± 1.1; under setting [2], 3.1 ± 1.3.

For the sequence ELDELQLCKNCFYLSNARPDNWFC [ZMYND11], the protein stability index is, setting by setting: under setting [1], 2.01 ± 0.25; under setting [2], 2.3 ± 0.62.

Take SVVRDLKGYPDGVKSIVVKGYNIW [TLE6]: the protein stability index by setting is: under setting [1], 2.26 ± 0.26; under setting [2], 2.23 ± 0.21.

As for LDLILAILALELICSLICLLIYTV [TMEM192], the protein stability index is 2.89 ± 0.55 under setting [1] and 3 ± 0.5 under setting [2].

Regarding RAKLDELEGALHQAKEELARMLRE [KRT71], the protein stability index is, setting by setting: under setting [1], 2.97 ± 0.36; under setting [2], 3.7 ± 0.33.

With VSSLISEKTNGATPLLMAARYGHL [FEM1C], the protein stability index came out at 2.28 ± 0.17 under setting [1] and 2.52 ± 0.28 under setting [2].

For the sequence ESQKKKQQDDSDEYDDDDSAASTS [ZNF207], the protein stability index reads like this: under setting [1], 5.7 ± 0.1; under setting [2], 5.53 ± 0.18.

On to PTHQAHTVGFLDEAIQPYRDRLRS [TRIM15], for which the protein stability index runs as follows: under setting [1], 4.52 ± 0.039; under setting [2], 4.44 ± 0.13.

On to LFCDVTLTAQGQQFHCHKAVLASC [KLHL14], for which the protein stability index by setting is: under setting [1], 2.66 ± 0.55; under setting [2], 2.71 ± 0.57.

With EERERIERVRRIHIKRPDDRAHLH [KCTD10], the protein stability index runs as follows: under setting [1], 4.43 ± 0.18; under setting [2], 4.54 ± 0.23.

As to TFPDLESEFQAALSRKVAKLVHFL [MAGEA6], the protein stability index came to 2.27 ± 0.2 under setting [1] and 2.22 ± 0.21 under setting [2].

Regarding LYLKQSDLASAAAKQIMEETYKME [INTS4], the protein stability index came out at 3.05 ± 0.17 under setting [1] and 3.3 ± 0.23 under setting [2].

For GAQMEKEWARALETRDWGGAQFEG [ZSWIM9], the protein stability index stood at 4.11 ± 0.26 under setting [1] and 4.22 ± 0.1 under setting [2].

For CGADVNVRDSDDNSPLHIAALNNH [FEM1C], the protein stability index was found to be 2.9 ± 0.34 under setting [1] and 2.83 ± 0.24 under setting [2].

Sequence SESEQEFLYKTAGGLIYWIGLTKA [CD207] displayed a protein stability index under setting [2] of 2.11 ± 0.59.

On to RDSFMRHRGHCERRHRLGGVGAVP [ZBTB22], for which the protein stability index by setting is: under setting [1], 3.22 ± 0.35; under setting [2], 3.25 ± 0.4.

Take TVCDPARSCAIVEDDGLQSAFTAA [ADAMTS4]: the protein stability index under setting [1] was determined as 3.6 ± 0.85 and the protein stability index under setting [2] was 4.16 ± 0.47.

Regarding KPISTKSQFLKHQQTHNIEKAHEC [ZNF649], the protein stability index reads like this: under setting [1], 4.48 ± 0.27; under setting [2], 4.41 ± 0.16.

In the case of FKRRRVRRRRMETIVFLDKEVFAS [PCMTD2], the protein stability index under setting [1] stood at 2.62 ± 0.16 and the protein stability index under setting [2] is 2.86 ± 0.33.

As for TASTKNCMVGYDMGATRCDFTLSK [CPXM2], the protein stability index reads like this: under setting [1], 2.64 ± 0.4; under setting [2], 3.03 ± 0.51.

On to YYLRKGKKINSNQLENEQSQENSI [SPANXN3], for which the protein stability index is, setting by setting: under setting [1], 4.47 ± 0.23; under setting [2], 4.23 ± 0.27.

As for SVDLIKTYKHINEVYYAKKKRRAQ [DYRK1B], the protein stability index runs as follows: under setting [1], 2.85 ± 0.23; under setting [2], 3.13 ± 0.14.

RPIPTPVGSVHVDSGASAITRESH [CSNK1G1]: the protein stability index came to 4.86 ± 0.33 under setting [1] and 4.9 ± 0.27 under setting [2].

Turning to RETASLKLLPHQPRIVEMKKGSNG [PDZK1], the protein stability index reads like this: under setting [1], 3.75 ± 0.31; under setting [2], 3.85 ± 0.32.

Consider PPRRSRSRSHDRLPYQRRYRERRD [CLK3], for which the protein stability index by setting is: under setting [1], 4.51 ± 0.29; under setting [2], 4.72 ± 0.32.

Take AEGSNSESSDDDSEEAPSTSGMGF [SDE2]: the protein stability index runs as follows: under setting [1], 5.37 ± 0.15; under setting [2], 5.26 ± 0.36.

With KEQILEFLVLEQFLTILPEELQSW [ZNF232], the protein stability index came to 3.21 ± 0.27 under setting [1] and 2.85 ± 0.62 under setting [2].

In the case of AALTEALQRQAEQNPTASYYNVVL [FCHO1], the protein stability index under setting [1] is 2.3 ± 0.33 and the protein stability index under setting [2] is 2.21 ± 0.33.

In the case of AIIASLTFLYTLLREVIHPLATSH [STEAP1], the protein stability index stood at 3.25 ± 0.34 under setting [1] and 2.89 ± 0.39 under setting [2].

With MTTALQGQRLAVCVPAHPPPCAWA [CTBP1-DT], the protein stability index under setting [1] worked out at 2.43 ± 0.2 and the protein stability index under setting [2] was 2.56 ± 0.14.

As to MGKRYFCDYCDRSFQDNLHNRKKH [ZMAT5], the protein stability index reads like this: under setting [1], 3.03 ± 0.33; under setting [2], 3.42 ± 0.34.

With GRLLLTLPLLRQTAGKVLAHFYGV [ESRRA], the protein stability index is 2.78 ± 0.54 under setting [1] and 3.05 ± 0.88 under setting [2].

Consider YDVKYLMKSCKNLKGGLQEVAEQL [CNOT7], for which the protein stability index under setting [1] is 2.61 ± 0.43 and the protein stability index under setting [2] was 2.98 ± 0.33.

Turning to MSDKYHDSDEATAARLLFNMAGVT [DCTD], the protein stability index by setting is: under setting [1], 3.53 ± 0.25; under setting [2], 3.54 ± 0.36.

Regarding KEQVLRKGTENLQRAQAEVLQSVR [FCHSD1], the protein stability index reads like this: under setting [1], 4.5 ± 0.096; under setting [2], 4.56 ± 0.27.

Regarding MQVNPISKRMGPMTVVRMDASVQP [RHOBTB1], the protein stability index under setting [1] turned out to be 3.48 ± 0.19 and the protein stability index under setting [2] is 3.43 ± 0.2.

Regarding EWIRFDQSNVLCSIFGICMVFSGL [PTGFR], the protein stability index runs as follows: under setting [1], 2.87 ± 0.59; under setting [2], 3.15 ± 0.071.

For the sequence EPCGPGKSKLTYMCRVDLRGHMPE [DLC1], the protein stability index under setting [1] is 2.45 ± 0.29 and the protein stability index under setting [2] turned out to be 2.11 ± 0.52.

Regarding RGDLWISWEEGMKVFEELLLDADW [CRY1], the protein stability index is, setting by setting: under setting [1], 2.31 ± 0.41; under setting [2], 2.4 ± 0.29.

FRKEIKSKSADNQEYFERHRWPPV [RHOBTB1] came in with a protein stability index under setting [1] of 3.45 ± 0.44 and a protein stability index under setting [2] of 3.26 ± 0.16.
